In US20180214568A1:

Legend:
[1] = biological target: CD56 on the surface of human neuroblastoma cells (human) (UniProt P13591); test: flow cytometry, MY31 staining of Kelly cells, untreated
[2] = biological target: CD56 on the surface of human neuroblastoma cells (human) (UniProt P13591); test: flow cytometry, MY31 staining of SKNAS cells, untreated
[3] = biological target: CD56 on the surface of human neuroblastoma cells (human) (UniProt P13591); test: flow cytometry, MY31 staining of Kelly cells after overnight treatment with 25 nM control IgG
[4] = biological target: CD56 on the surface of human neuroblastoma cells (human) (UniProt P13591); test: flow cytometry, MY31 staining of SKNAS cells after overnight treatment with 25 nM control IgG
[5] = biological target: CD56 on the surface of human neuroblastoma cells (human) (UniProt P13591); test: flow cytometry, MY31 staining of Kelly cells after overnight treatment with 25 nM m906 (remaining surface CD56)
[6] = biological target: CD56 on the surface of human neuroblastoma cells (human) (UniProt P13591); test: flow cytometry, MY31 staining of Kelly cells after overnight treatment with 50 nM m906 (remaining surface CD56)
[7] = biological target: CD56 on the surface of human neuroblastoma cells (human) (UniProt P13591); test: flow cytometry, MY31 staining of SKNAS cells after overnight treatment with 25 nM m906 (remaining surface CD56)
[8] = biological target: CD56 on the surface of human neuroblastoma cells (human) (UniProt P13591); test: flow cytometry, MY31 staining of SKNAS cells after overnight treatment with 50 nM m906 (remaining surface CD56)
[9] = biological target: CD56 on the surface of human neuroblastoma cells (human) (UniProt P13591); test: flow cytometry, MY31 staining of Kelly cells after overnight treatment with 12.5 nM m906 (remaining surface CD56)
[10] = biological target: CD56 on the surface of human neuroblastoma cells (human) (UniProt P13591); test: flow cytometry, MY31 staining of SKNAS cells after overnight treatment with 12.5 nM m906 (remaining surface CD56)
[11] = biological target: CD56 on the surface of human neuroblastoma cells (human) (UniProt P13591); test: flow cytometry, isotype control staining of Kelly cells
[12] = biological target: CD56 on the surface of human neuroblastoma cells (human) (UniProt P13591); test: flow cytometry, isotype control staining of SKNAS cells

| Geometric Mean [1] | Geometric Mean [2] | Geometric Mean [3] | Geometric Mean [4] | Geometric Mean [5] | Geometric Mean [6] | Geometric Mean [7] | Geometric Mean [8] | Geometric Mean [9] | Geometric Mean [10] | Geometric Mean [11] | Geometric Mean [12] | Substance |
| --- | --- | --- | --- | --- | --- | --- | --- | --- | --- | --- | --- | --- |
| 53700 | 12500 | 63700 | 13300 | 6420 | 6030 | 10600 | 10300 | 7150 | 10200 |  |  | anti-CD56 antibody MY31 |
|  |  |  |  |  |  |  |  |  |  | 4710 | 10700 | PE Isotype Control (antibody) |
